Source: patent US20230035798A1 (CAPELLA BIOSCIENCE, published 2023)
Changes are numbered by the printed parent chain. Where two headings read alike, the source gives them in different places. One block for each binder: values may come before it.

Key:
[1] = molecular target: T1, human LIGHT (TNFSF14), full length, membrane-bound (214E allele) (human, UniProt O43557 1-240); assay: DcR3-His (1 nM) competition, EL4-LIGHT, flow cytometry; 1.23 nM
T1 construct: also called membrane LIGHT; human membrane LIGHT
Protocol: (§1) EL4-LIGHT cells (0.25×10⁶) were preincubated with anti-membrane LIGHT mAbs (0-300 nM) for 15 min at 4° C. followed by incubation with DcR3-His tagged (1 nM, Creative BioMart; ref: TNFRSF6B-552H, lot: 962512) for 30 min at 4° C. The samples were then incubated with mouse anti-histag antibody (diluted 1:500, Biolegend, cat. no. 652502) for 30 minutes at 4° C., followed by incubation with anti-mouse APC (dil 1:500, BDBiosciences, cat. no. 550826) for 30 minutes at 4° C. The tubes were washed three times after each of the detection antibody stages and flow cytometry analysis was performed. Specific mean fluorescence intensity (MFI) obtained from the binding of DcR3-His to LIGHT on EL4 cells were used to determine the levels of competition binding.
(§2) In humans, LIGHT is neutralized by DcR3, a unique soluble member of the TNFR superfamily, which tightly binds LIGHT (both soluble and membrane forms) and inhibits its interactions with HVEM and LTβR. A major binding determinant for DcR3 neutralization is the region T170-E178 on LIGHT (Liu et al. Structure 2014: 9; 1252-1262). […] In contrast the anti-LIGHT mAb F19, (from EP2292663) which binds both soluble LIGHT and membrane LIGHT equally well completely displaces DcR3 from binding to membrane LIGHT highlighting a surprising an important functional difference between the anti-membrane LIGHT mAbs of this invention and other neutralizing anti-LIGHT mAbs that have been raised against or screened against soluble LIGHT.
Target sequence in this assay (O43557 whole entry K214E): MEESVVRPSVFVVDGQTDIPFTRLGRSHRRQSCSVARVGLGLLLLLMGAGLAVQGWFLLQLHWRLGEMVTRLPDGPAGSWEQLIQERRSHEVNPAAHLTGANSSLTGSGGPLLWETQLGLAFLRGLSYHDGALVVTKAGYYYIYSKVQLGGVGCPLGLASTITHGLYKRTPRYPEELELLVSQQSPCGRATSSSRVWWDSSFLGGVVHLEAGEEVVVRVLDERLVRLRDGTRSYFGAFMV

[2] = molecular target: T1, human LIGHT (TNFSF14), full length, …; assay: DcR3-His (1 nM) competition, EL4-LIGHT, flow cytometry; 33.3 nM
Protocol: as §1, §2
Target sequence in this assay (O43557 whole entry K214E): as above

[3] = molecular target: T1, human LIGHT (TNFSF14), full length, …; assay: flow cytometry, maximum signal compared with F19 and F23
Target sequence in this assay (O43557 whole entry K214E): as above

[4] = molecular target: T1, human LIGHT (TNFSF14), full length, …; assay: DcR3-His (1 nM) competition, EL4-LIGHT, flow cytometry; 0.41 nM
Protocol: as §1, §2
Target sequence in this assay (O43557 whole entry K214E): as above

[5] = molecular target: T1, human LIGHT (TNFSF14), full length, …; assay: flow cytometry, EL4-LIGHT cells
Protocol: The EC50 of the 7 mAbs were calculated from binding to EL4-LIGHT cells (Table 7) which represents a more accurate comparison of the EC50's than utilising transiently transfected LIGHT cells. […] Non-linear regression analysis was performed to determine the functional binding affinity measurement or EC50 for each mAb. A range of functional affinities was observed.
Target sequence in this assay (O43557 whole entry K214E): as above

[6] = molecular target: T1, human LIGHT (TNFSF14), full length, …; assay: DcR3-His (1 nM) competition, EL4-LIGHT, flow cytometry; 11.1 nM
Protocol: as §1, §2

[7] = molecular target: T2, cynomolgus (Macaca fascicularis) LIGHT, membrane-bound (cynomolgus (Macaca fascicularis), UniProt E9NVF7 1-240); assay: flow cytometry, transiently transfected HEK293FF cells
T2 construct: whole, on cells; also called cynomolgus membrane LIGHT; HEK293FF-cynomolgus LIGHT cells
Text: In order to compare the cross-reactivity of the mAbs to both human and cynomolgus LIGHT, transiently transfected human or cynomolgus LIGHT-HEK293FF cells were utilised in which approximately 50% of the cells expressed LIGHT and bound mAb was detected with goat anti-human IgG FITC. The EC50 of each mAb is depicted in Table 6 after correction for background binding to untransfected cells. (Note that when the relationship between receptor occupancy and response is linear, EC50 may be equivalent or substantially equivalent to KD).

[8] = molecular target: T3, recombinant human soluble LIGHT, amino acids 74-240 (R&D Systems 664-LI-025) (human, UniProt O43557 74-240); assay: SPR (BIAcore), as for Table 9
T3 construct: range 74-240; also called 74-240 LIGHT; Soluble LIGHT 74-240
T3 chain: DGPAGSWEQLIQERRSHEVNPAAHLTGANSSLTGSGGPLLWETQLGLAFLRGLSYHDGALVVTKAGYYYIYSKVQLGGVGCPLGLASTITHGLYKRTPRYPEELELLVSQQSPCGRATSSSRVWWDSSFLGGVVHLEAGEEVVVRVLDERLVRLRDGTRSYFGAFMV
Protocol: Real-time binding interactions between captured antibody (chimeric anti-membrane LIGHT monoclonal antibody) captured on a biosensor matrix via goat anti-human Fe IgG and recombinant soluble LIGHT were measured by surface plasmon resonance (SPR) using the BIAcore system (GE Healthcare) according to manufacturer's instructions and standard procedures. Briefly, soluble LIGHT was diluted in HBS running buffer (GE Healthcare) and aliquots were injected through the immobilized protein matrices at a flow rate of […]. BIAevaluation software was used to calculate association rate (ka), dissociation rate (kd) and affinity (KD).
The specificity of further anti-membrane LIGHT mAbs to soluble LIGHT was determined by using the same BIAcore analysis discussed above which was used to generate the data in Table 9. In brief, mAbs 3B04, 3D12, 3A07, 3C10 and 2B11 were compared to various prior art antibodies, (F19 and F23 IgG4 mAbs from EP2292663 and 1C02, 13H04 and 31A10 mAbs from WO2015/107331).

[9] = molecular target: T1, human LIGHT (TNFSF14), full length, …; assay: membrane LIGHT on cells, as for Table 9
Target sequence in this assay (O43557 whole entry K214E): as the sequence (O43557 whole entry K214E) above

[10] = molecular target: T1, human LIGHT (TNFSF14), full length, …; assay: soluble LIGHT 74-240 KD over membrane LIGHT KD
[11] = molecular target: membrane LIGHT without residues 81-84 (EL4-NC-LIGHT cells) (human, UniProt O43557 1-240); assay: cell-based or functional assay
[12] = molecular target: T1, human LIGHT (TNFSF14), full length, …; assay: flow cytometry, EL4-LIGHT cells; remark: listed apart in the source

T2 sequence (E9NVF7 entry or part of it): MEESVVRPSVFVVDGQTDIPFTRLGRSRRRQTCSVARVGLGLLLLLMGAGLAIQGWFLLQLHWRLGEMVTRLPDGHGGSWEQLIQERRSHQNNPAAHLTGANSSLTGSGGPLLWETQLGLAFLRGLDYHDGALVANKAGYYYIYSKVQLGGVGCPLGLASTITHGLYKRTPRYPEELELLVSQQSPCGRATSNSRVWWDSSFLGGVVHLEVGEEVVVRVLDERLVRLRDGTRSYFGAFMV
Chain of membrane LIGHT without residues 81-84 (EL4-NC-LIGHT cells) (O43557 other isoform, or with tags, fused parts or gaps): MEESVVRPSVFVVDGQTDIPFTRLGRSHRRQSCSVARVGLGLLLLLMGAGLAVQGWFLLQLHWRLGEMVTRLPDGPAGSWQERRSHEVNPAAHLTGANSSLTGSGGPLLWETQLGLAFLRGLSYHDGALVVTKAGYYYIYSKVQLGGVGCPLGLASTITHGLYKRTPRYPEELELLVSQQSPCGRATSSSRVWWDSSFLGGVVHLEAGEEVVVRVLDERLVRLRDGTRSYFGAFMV

B2: 2E08 (antibody, human IgG4, V domains shown)
VH: QVQMKESGAELVRPGVSVKISCKGSGYTFTDYAIHWVKQSHAKTLEWIGVISTYYGDASYNQKFKGKATMTVDKSSSTAYMELARLTSDDSAIYYCARSRGEYGNYDAMDYWGQGTSVTVSS
VL: DIVLTQSPASLAVSLGQRATISCKASQSVDYDGDSYMNWYQQKPGQPPKLLIYAASNLESGIPARFSGSGSGTDFTLNIHPVEEEDAATYYCQQSNEDPLTFGAGTKLELK
notes: chimeric human IgG4 (S-to-P, L-to-E at 248), human CL; also called Parental 2E08
- DcR3-His binding, % of irrelevant mAb [1]: 118%
- DcR3-His binding, % of irrelevant mAb [2]: 78.4%
- binding ratio, mAb per LIGHT trimer [3]: 1 mAb per LIGHT trimer
- DcR3-His binding, % of irrelevant mAb [4]: 107%
- EC50 [5]: 1.8 nM
- DcR3-His binding, % of irrelevant mAb [6]: 85.7%
- EC50 [7]: 0.3 nM

B3: 2B11 (antibody, human IgG4, V domains shown)
VH: B2 VH with Q1E, M4L, K5V, T44S, D89E
VL: DIVLTQSPASLAVSLGQRATISCRASESVDSYGNSFMHWYQQKPGQPPKLLIYRASNLESGIPARFSGSGSRTDFTLTINPVEADDVATYYCQQSNEDPYTFGGGTKLEIK
notes: chimeric human IgG4 (S-to-P, L-to-E at 248), human CL; also called Parental 2B11
- DcR3-His binding, % of irrelevant mAb [1]: 115%
- DcR3-His binding, % of irrelevant mAb [2]: 79.8%
- binding ratio, mAb per LIGHT trimer [3]: 1 mAb per LIGHT trimer
- Kd [8]: 16 nM
- Kd [9]: 0.34 nM
- DcR3-His binding, % of irrelevant mAb [4]: 114%
- EC50 [5]: 0.3 nM
- Membrane:soluble LIGHT affinity ratio [10]: 47.1
- DcR3-His binding, % of irrelevant mAb [6]: 77.5%
- EC50 [7]: 0.02 nM

B4: 3A07 (antibody, human IgG4, V domains shown)
VH: QVQLQQSGAELVRPGAPVTLSCKASDYTFTDSEIHWVKQTPVHGLEWIGEIDPETGGTAYNQKFKGKATLTADKSSSTAYMELRSLTSEDSAVYYCSRETDYFFDYWGQGTTLTVSS
VL: ENVLTQSPAIMSASPGEKVTMTCSASSSVSYMYWYQQRPGSSPRLLIYDTSNLASGVPVRFSGSGSGTSYSLTISRMEAEDAATYYCQQWSSYPLTFGSGTKLEIK
notes: chimeric human IgG4 (S-to-P, L-to-E at 248), human CL; also called Parental 3A07
- DcR3-His binding, % of irrelevant mAb [1]: 90.6%
- DcR3-His binding, % of irrelevant mAb [2]: 67.5%
- binding ratio, mAb per LIGHT trimer [3]: 1 mAb per LIGHT trimer
- Kd [8]: 15.8 nM
- Kd [9]: 0.15 nM
- DcR3-His binding, % of irrelevant mAb [4]: 102%
- EC50 [5]: 0.14 nM
- Membrane:soluble LIGHT affinity ratio [10]: 105
- DcR3-His binding, % of irrelevant mAb [6]: 75.8%
- EC50 [7]: 7.6 nM

B5: 3B04 (antibody, human IgG4, V domains shown)
VH: B4 VH with S7P, P17S, D26G, S32Y, I34M, G57D, N61S, L83F
VL: DIQMTQTPASLSASVGETVTITCGASENIYGALNWYQRKQGKSPQLLIYGATNLADGMSSRFSGSGSGRQYSLKISSLHPDDFATYYCQNVLTTPWTFGGGTKLEIKR
notes: chimeric: mouse variable domains on human IgG4 HC (S-to-P and L-to-E at 248) and human CL; also called Parental 3B04; 3B04 chimeric
- DcR3-His binding, % of irrelevant mAb [1]: 75.1%
- IC50, inhibition of IL-8 secretion from HT-29 cells (EL4-NC-LIGHT cells) [11]: 0.05 nM
- DcR3-His binding, % of irrelevant mAb [2]: 85.1%
- Kd [8]: 11.1 nM
- Kd [9]: 0.21 nM
- DcR3-His binding, % of irrelevant mAb [4]: 94.8%
- EC50 [5]: 0.15 nM
- EC50 [12]: 0.12 nM
- Membrane:soluble LIGHT affinity ratio [10]: 52.9
- DcR3-His binding, % of irrelevant mAb [6]: 78.3%
- EC50 [7]: 0.1 nM

B6: 3C10 (antibody, human IgG4, V domains shown)
VH: B4 VH with Q1E, P17S
VL: B4 VL with E1D, N2V, L4M, S7T, R38K, S99A, I105L
notes: chimeric human IgG4 (S-to-P, L-to-E at 248), human CL; also called Parental 3C10
- DcR3-His binding, % of irrelevant mAb [1]: 95.5%
- DcR3-His binding, % of irrelevant mAb [2]: 81.9%
- binding ratio, mAb per LIGHT trimer [3]: 1 mAb per LIGHT trimer
- Kd [8]: 11 nM
- Kd [9]: 0.18 nM
- DcR3-His binding, % of irrelevant mAb [4]: 124%
- EC50 [5]: 0.16 nM
- Membrane:soluble LIGHT affinity ratio [10]: 61.1
- DcR3-His binding, % of irrelevant mAb [6]: 83.6%
- EC50 [7]: 10.3 nM

Other lines, results leading:

- DcR3-His binding, % of irrelevant mAb [1]: 66.9%
- DcR3-His binding, % of irrelevant mAb [2]: 70.5%
- binding ratio, mAb per LIGHT trimer [3]: 1 mAb per LIGHT trimer
- DcR3-His binding, % of irrelevant mAb [4]: 94.2%
- EC50 [5]: 8.1 nM
- DcR3-His binding, % of irrelevant mAb [6]: 71.1%
- EC50 [7]: 0.7 nM
B1: 3E09 (antibody, V domains shown)
VH: EVQLVESGGGLVKPGGSLKLSCEASGFTFSDYYMYWVRQTPEKRLEWVAAIGDGGIYTYYADTVKGRFTISRDNAKNILYLQMSSLKSNDTAMYYCARGTGDGFAYWGQGTLVTVS
VL: B3 VL with R54L, I62V, N80D, V87A, S95N
notes: chimeric human IgG4 (S-to-P, L-to-E at 248), human CL; also called Parental 3E09

- DcR3-His binding, % of irrelevant mAb [1]: 72.8%
- IC50, inhibition of IL-8 secretion from HT-29 cells (EL4-NC-LIGHT cells) [11]: 0.32 nM
- DcR3-His binding, % of irrelevant mAb [2]: 78.1%
- Kd [8]: 3.6 nM
- Kd [9]: 0.19 nM
- DcR3-His binding, % of irrelevant mAb [4]: 99.4%
- EC50 [5]: 0.2 nM
- EC50 [12]: 0.08 nM
- Membrane:soluble LIGHT affinity ratio [10]: 18.9
- DcR3-His binding, % of irrelevant mAb [6]: 61.1%
- EC50 [7]: 0.3 nM
B7: 3D12 (antibody, human IgG4, V domains shown)
VH: B4 VH with S7P, P17S
VL: B5 VL with T7S, F83V, T93S
notes: chimeric: mouse variable domains on human IgG4 HC (S-to-P and L-to-E at 248) and human CL; also called Parental 3D12; 3D12 chimeric
